Data on one protein can be found in US20120102593.

This data set concerns the target histone H4 (rice, extracted from leaves).

B1: histone deacetylase OsHDT1 (protein)
chain: MEFWGLEVKPGQTVKCEPEDERFLHLSQAALGESKKGSDNAVMYVKTDDQKLVIGTLSADKFPQIQFDLVFDKEFELSHTSKTASVFFSGYKVSQPAEEDEMDFDSEEVEDEEEEEKIIPAPRANGKVEGKENEQKKQGKTDSSASKSKAAVNDDDDDDDSAEDDSQDEDLSPEDDDDDSSEDDSSEDDEDESDEEDTPKKPETGKRKVAEIVLKTPSSDKKAKIATPSGQKTGDKKGVHVATPHPAKQASKTPVNDKSKEKSPKSGGGSISCKSCSKTFNSEMALQSHSKAKHPAK
Consider B1, for which the “Western blotting of histone extracted from transgenic and wild-type parent and hybrid OsHDT1 plants, using commercial antibodies against histone modifications” value is “HDT1 was capable of deacetylating histone and as such is a histone deacetylase mainly acting at H4K16 site”.
